How the values were obtained:
OML4-nLUC [1] = molecular target: T1, OML4-nLUC (rice; firefly, UniProt Q64M78 1-1001); test: firefly luciferase complementation imaging, co-expression in N. benthamiana leaves
T1 construct: Co-expressed in N. benthamiana leaves; Order of the pieces follows the printed name; not shown: N-terminal fragment of firefly luciferase (nLUC)
T1 sequence: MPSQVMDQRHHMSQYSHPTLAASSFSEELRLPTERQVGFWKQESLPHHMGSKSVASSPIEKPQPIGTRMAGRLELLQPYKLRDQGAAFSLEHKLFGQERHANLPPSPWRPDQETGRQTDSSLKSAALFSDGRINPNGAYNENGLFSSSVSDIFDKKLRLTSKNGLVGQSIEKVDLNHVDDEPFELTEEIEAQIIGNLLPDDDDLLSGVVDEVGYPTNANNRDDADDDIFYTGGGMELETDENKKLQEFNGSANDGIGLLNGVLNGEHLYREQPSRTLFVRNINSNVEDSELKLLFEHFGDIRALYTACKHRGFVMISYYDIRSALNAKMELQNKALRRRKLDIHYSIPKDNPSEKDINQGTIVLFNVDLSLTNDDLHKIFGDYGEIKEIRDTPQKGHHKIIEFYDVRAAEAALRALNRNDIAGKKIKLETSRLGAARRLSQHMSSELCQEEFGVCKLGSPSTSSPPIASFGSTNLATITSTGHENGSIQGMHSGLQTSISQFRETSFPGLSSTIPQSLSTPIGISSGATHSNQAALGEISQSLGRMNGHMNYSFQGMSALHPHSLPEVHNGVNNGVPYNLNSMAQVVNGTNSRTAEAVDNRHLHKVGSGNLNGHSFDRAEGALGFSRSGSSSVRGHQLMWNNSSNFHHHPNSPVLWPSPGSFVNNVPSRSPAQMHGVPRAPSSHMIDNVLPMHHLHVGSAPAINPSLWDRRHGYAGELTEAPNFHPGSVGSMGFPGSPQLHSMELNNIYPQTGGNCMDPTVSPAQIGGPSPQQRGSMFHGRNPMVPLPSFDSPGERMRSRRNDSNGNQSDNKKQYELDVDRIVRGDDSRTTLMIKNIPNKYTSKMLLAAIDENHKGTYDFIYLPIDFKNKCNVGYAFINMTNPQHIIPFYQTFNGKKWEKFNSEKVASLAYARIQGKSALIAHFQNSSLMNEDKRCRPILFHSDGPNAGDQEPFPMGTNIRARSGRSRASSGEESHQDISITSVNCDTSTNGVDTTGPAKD
Method: (§1) (A) OML4 interacts with GSK2 in yeast cells. Yeast cells were cultured on SD/-Trp-Leu or SD/-Trp-Leu-His-Ade media. (B) OML4 associates with GSK2 in N. benthamiana. OML4-nLUC and GSK2-cLUC were co-expressed in N. benthamiana leaves. Luciferase activity was observed 48 hours after infiltration. The range of luminescence intensity was scaled by the pseudocolor bar. (C) Bimolecular fluorescence complementation (BiFC) assays shown that OML4 interacts with GSK2 in N. benthamiana. OML4-cYFP was coexpressed with GSK2-nYFP in leaves of N. benthamiana. (D) OML4 binds GSK2 in vitro. GSK2-GST was incubated with OML4-MBP and pulled down by OML4-MBP and detected by immunoblot with anti-GST antibody. IB: immunoblot. (E) Interaction between OML4 and GSK2 in the Co-IP assays. Anti-MYC beads were used to immunoprecipitate GSK2-GFP proteins. Gel blots were probed with anti-MYC or anti-GFP antibody. Bars: 50 μm in C.
(§2) We next verified the interaction between OML4 and GSK2 in plant cells using the firefly luciferase (LUC) complementation imaging assay (FIG. 5B). The OML4-nLUC and GSK2-cLUC were transformed and co-expressed in N. benthamiana leaves. […] We then performed bimolecular fluorescence complementation (BiFC) assay to test the interaction between OML4 and GSK2 in plant cells (FIG. 5C). […]

OML4-Flag = molecular target: T2, OML4-Flag
T2 chain: T1 sequence

cOML4-Flag = molecular target: T3, cOML4-Flag
T3 chain: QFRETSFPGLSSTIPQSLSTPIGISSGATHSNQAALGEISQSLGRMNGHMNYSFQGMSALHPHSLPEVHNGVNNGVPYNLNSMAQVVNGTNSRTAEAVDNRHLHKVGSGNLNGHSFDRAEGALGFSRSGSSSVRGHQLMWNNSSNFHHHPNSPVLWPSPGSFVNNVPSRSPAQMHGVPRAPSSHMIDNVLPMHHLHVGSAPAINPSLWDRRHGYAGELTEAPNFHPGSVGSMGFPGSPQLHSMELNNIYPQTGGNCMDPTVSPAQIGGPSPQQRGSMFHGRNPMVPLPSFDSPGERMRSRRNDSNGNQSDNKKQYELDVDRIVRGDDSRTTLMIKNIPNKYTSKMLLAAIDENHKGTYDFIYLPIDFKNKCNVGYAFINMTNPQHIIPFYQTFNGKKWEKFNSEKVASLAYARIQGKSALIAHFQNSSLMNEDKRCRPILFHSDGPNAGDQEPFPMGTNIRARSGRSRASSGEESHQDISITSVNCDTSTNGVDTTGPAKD

nOML4-Flag = molecular target: T4, nOML4-Flag
T4 chain: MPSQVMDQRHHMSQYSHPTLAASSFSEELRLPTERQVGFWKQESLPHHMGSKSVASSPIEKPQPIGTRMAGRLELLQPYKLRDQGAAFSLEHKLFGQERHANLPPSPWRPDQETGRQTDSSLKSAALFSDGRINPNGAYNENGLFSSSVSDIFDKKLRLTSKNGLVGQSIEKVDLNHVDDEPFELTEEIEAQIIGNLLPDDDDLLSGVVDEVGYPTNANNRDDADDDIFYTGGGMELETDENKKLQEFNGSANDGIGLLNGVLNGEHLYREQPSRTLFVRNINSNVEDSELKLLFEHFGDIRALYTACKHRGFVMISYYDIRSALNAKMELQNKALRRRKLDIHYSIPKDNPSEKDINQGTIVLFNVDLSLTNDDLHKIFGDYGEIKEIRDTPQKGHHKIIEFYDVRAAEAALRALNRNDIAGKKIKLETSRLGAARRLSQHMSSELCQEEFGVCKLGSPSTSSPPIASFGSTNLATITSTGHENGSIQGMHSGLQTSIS

[2] = molecular target: T5, OML4 full-length protein, yeast two-hybrid bait (OML4 cDNA in pGBKT7) (rice, UniProt Q64M78 1-1001); test: yeast two-hybrid, OML4 full-length protein as bait
T5 construct: Expressed in yeast cells; also called Mei2-Like protein 4; LARGE1; not shown: fusion partner encoded by vector pGBKT7
T5 sequence: T1 sequence
Description: To further understand the molecular role of OML4 in grain growth control, we identified its interacting partners through a yeast two-hybrid (Y2H) assay. The OML4 full-length protein was used as the bait. Among several interacting proteins, six different clones corresponding to GSK2 were found in this screen. […] We further confirmed the interaction of OML4 with the full length GSK2 in yeast cells (FIG. 5A).
The cDNA sequences of GSK2 and OML4 were amplified using gene-specific primers (Table S4), and products were fused into the linearized pGADT7 and pGBKT7 vectors, respectively. Yeast two-hybrid analysis was conducted according to the manufacturer's instruction (Clontech, USA).

OML4-cYFP = molecular target: T6, OML4-cYFP (rice, UniProt Q64M78 1-1001); test: bimolecular fluorescence complementation (BiFC), confocal microscopy
T6 construct: Transiently expressed in N. benthamiana leaves; Order of the pieces follows the printed name; also called OML4 fused with the C-terminus of the yellow fluorescent protein; not shown: C-terminus of the yellow fluorescent protein (cYFP, vector pGBW414-cYFP)
T6 sequence: T1 sequence
Method: as §1, §2

recombinant OML4 = molecular target: T7, recombinant OML4
T7 chain: T1 sequence

OML4-nLUC [3] = molecular target: T1, OML4-nLUC; test: firefly luciferase complementation imaging in N. benthamiana leaves
Method: as §1, §2

nLUC = molecular target: T8, nLUC (firefly, UniProt P08659 1-416 = luciferase); test: firefly luciferase complementation imaging, co-expression in N. benthamiana leaves
T8 construct: Control of the luciferase complementation imaging assay
Method: as §1, §2

T8 sequence (P08659 1-416): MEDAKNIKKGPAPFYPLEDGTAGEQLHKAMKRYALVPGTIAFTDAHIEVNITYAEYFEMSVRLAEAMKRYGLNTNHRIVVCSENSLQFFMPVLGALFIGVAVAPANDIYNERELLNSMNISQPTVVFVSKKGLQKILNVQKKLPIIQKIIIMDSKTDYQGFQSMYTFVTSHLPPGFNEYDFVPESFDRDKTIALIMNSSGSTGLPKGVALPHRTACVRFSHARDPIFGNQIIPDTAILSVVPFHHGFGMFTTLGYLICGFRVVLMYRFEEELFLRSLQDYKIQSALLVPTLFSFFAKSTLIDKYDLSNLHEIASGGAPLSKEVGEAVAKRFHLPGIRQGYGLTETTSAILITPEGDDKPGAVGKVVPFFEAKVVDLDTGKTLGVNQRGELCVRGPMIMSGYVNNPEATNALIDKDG

B1: cLUC (other, firefly, UniProt P08659 398-550, looked up)
chain: MSGYVNNPEATNALIDKDGWLHSGDIAYWDEDEHFFIVDRLKSLIKYKGYQVAPAELESILLQHPNIFDAGVAGLPDDDAGELPAAVVVLEHGKTMTEKEIVDYVASQVTTAKKLRGGVVFVDEVPKGLTGKLDARKIREILIKAKKGGKSKL
notes: Control of the luciferase complementation imaging assay
- binding result (OML4-nLUC [1]): no binding

B2: GSK2-GST (protein)
chain: MDQPAPAPEPMLLDAQPPAAVACDKKQQEGEAPYAEGNDAVTGHIISTTIGGKNGEPKRTISYMAERVVGTGSFGIVFQAKCLETGETVAIKKVLQDRRYKNRELQLMRAMDHPNVISLKHCFFSTTSRDELFLNLVMEYVPETLYRVLKHYSNANHRMPLIYVKLYMYQLFRGLAYIHTVPGVCHRDVKPQNVLVDPLTHQVKLCDFGSAKTLVPGEPNISYICSRYYRAPELIFGATEYTTSIDIWSAGCVLAELLLGQPLFPGESAVDQLVEIIKVLGTPTREEIRCMNPNYTEFRFPQIKAHPWHKVFHKRMPPEAIDLASRLLQYSPSLRCTALDACAHPFFDELREPNARLPNGRPFPPLFNFKHELANSSQELISRLIPEHVRRQATHNFFNTGS
- phosphorylation level, phos-tag SDS-PAGE (OML4S105A, S607A-MBP): Mutations of the two aforementioned Ser residues to Ala reduced the phosphorylation level of OML4, although OML4^S105A,S607A was still phosphorylated by GSK2
- phosphorylation, in vitro kinase assay, phos-tag SDS-PAGE (OML4-Flag): The phosphorylated OML4-Flag, nOML4-Flag and cOML4-Flag were detected in the presence of GSK2-GST, while the phosphorylated OML4-Flag, nOML4-Flag and cOML4-Flag were not found in the absence of GSK2-GST
- phosphorylation, in vitro kinase assay, phos-tag SDS-PAGE (cOML4-Flag): The phosphorylated OML4-Flag, nOML4-Flag and cOML4-Flag were detected in the presence of GSK2-GST, while the phosphorylated OML4-Flag, nOML4-Flag and cOML4-Flag were not found in the absence of GSK2-GST
- phosphorylation, in vitro kinase assay, phos-tag SDS-PAGE (nOML4-Flag): The phosphorylated OML4-Flag, nOML4-Flag and cOML4-Flag were detected in the presence of GSK2-GST, while the phosphorylated OML4-Flag, nOML4-Flag and cOML4-Flag were not found in the absence of GSK2-GST
- phosphorylation, phos-tag SDS-PAGE (cOML4(S607A)-FLAG): S(105) and S(607) partially influence the phosphorylation of OML4
- phosphorylation, phos-tag SDS-PAGE (nOML4(S105A)-FLAG): S(105) and S(607) partially influence the phosphorylation of OML4

B3: full length GSK2, yeast two-hybrid prey (GSK2 cDNA in pGADT7) (enzyme)
chain: B2 chain
notes: Expressed in yeast cells; The six GSK2 clones found in the first screen are not described further; also called glycogen synthase kinase 2; SHAGGY-like kinase; not shown: fusion partner encoded by vector pGADT7
- binding result [2]: binds

B4: GSK2-nYFP (enzyme)
chain: B2 chain
notes: Transiently expressed in N. benthamiana leaves; Order of the pieces follows the printed name; also called GSK2 fused with the N-terminus of the yellow fluorescent protein; not shown: N-terminus of the yellow fluorescent protein (nYFP, vector pGBW414-nYFP)
- binding result (OML4-cYFP): binds

B5: recombinant GSK2 (protein)
chain: B2 chain
- phosphopeptides of OML4 found by LC-MS/MS after in vitro kinase reaction (recombinant OML4): We identified 18 phosphopeptides of OML4, which correspond to 14 phosphosites
- phosphosites of OML4 found by LC-MS/MS after in vitro kinase reaction (recombinant OML4): We identified 18 phosphopeptides of OML4, which correspond to 14 phosphosites

B6: GSK2-cLUC (enzyme)
chain: B2 chain
notes: Co-expressed in N. benthamiana leaves; Order of the pieces follows the printed name; not shown: C-terminal fragment of firefly luciferase (cLUC)
- binding result (OML4-nLUC [3]): binds
- binding result (nLUC): no binding

Reference: patent US20230081195A1 (INSTITUTE OF GENETICS AND DEVELOPMENT BIOLOGY CHINESE …, published 2023)
